The record followed here is publication PMC6368300.

Broadly, the Kd is the free concentration of one partner at which half of the binding sites on the other are occupied at equilibrium, for simple one-to-one binding. A high value points to weaker binding.

The experiment concerns the target Pyruvate Kinase M2 (human) (UniProt P14618). Description: SPR; Autolab SPR; PKM2 immobilised by NHS/EDC coupling; Histone H3 100 nM-1000 nM as analyte; 10 mM HEPES pH 7.4, 150 mM NaCl, 3 mM EDTA, 0.05% NP-40; 25°C; 1:1 Langmuir model, KD from the equilibrium equation; triplicate. Background: In SPR one partner is held on a chip, and binding of the other changes the refractive index at the surface.
Sequence of UniProt P14618 (P14618 whole entry): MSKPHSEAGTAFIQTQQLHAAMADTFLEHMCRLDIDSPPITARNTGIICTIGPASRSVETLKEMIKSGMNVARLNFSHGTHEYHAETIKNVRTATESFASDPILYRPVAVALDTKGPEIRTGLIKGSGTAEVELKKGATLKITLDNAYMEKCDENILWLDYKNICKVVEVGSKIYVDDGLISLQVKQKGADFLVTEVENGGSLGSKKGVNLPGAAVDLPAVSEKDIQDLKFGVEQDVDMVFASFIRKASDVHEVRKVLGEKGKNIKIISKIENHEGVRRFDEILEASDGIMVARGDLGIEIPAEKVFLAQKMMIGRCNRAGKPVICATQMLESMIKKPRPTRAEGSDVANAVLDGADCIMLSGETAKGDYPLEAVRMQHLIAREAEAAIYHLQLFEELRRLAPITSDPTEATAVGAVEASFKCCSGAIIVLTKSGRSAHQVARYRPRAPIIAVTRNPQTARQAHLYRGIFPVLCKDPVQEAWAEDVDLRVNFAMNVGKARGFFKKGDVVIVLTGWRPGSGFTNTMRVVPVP

Consider “Histone H3 (from UniProt P84233 1-136) (natural protein; other documents disagree on this pair)”, for which the Kd stood at 6.39 µM.
